Results reported in the supplement of paper PMC9170038.

Tested on: MS2 coat protein
Test: apparent KD of MS2 coat protein; designed switch direction (-1 OFF switch, 1 ON switch): -1; higher = weaker reporter binding
In short: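 Apparent KD, taken as the median over clusters for each design, was obtained by curve-fitting normalised cluster fluorescence. Designed RNA switches had been transcribed on Illumina chips by stalled E. coli RNA polymerase and titrated with SNAP-549-labelled MS2 coat protein, doubling from 0.7 or 1.5 nM to 3 µM.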

[1] = input ligand: microRNA oligo, concentration not stated
[2] = Eterna round: R95, input ligand: FMN 200 uM
[3] = Eterna round: R95, input ligand: microRNA oligo, concentration not stated
[4] = Eterna round: R95, input ligand: none

Row | Sequence | apparent KD of MS2 coat protein (input ligand: FMN 200 uM) [nM] | apparent KD of MS2 coat protein [1] [nM] | apparent KD of MS2 coat protein (input ligand: none) [nM] | apparent KD of MS2 coat protein [2] [nM] | apparent KD of MS2 coat protein [3] [nM] | apparent KD of MS2 coat protein [4] [nM]
1 | UAAUAACAUGUAGGAUAUGCGUGGCGAAGCUAUGCAGAAGGACAUGAGGAUCACCCAUGUUAAAGCGUCUGAGAACAGAUGCGA [Mat - Exclusion NG 1 - Mod of JL - D98] (Eterna round: R96, puzzle: Exclusion NG 1) | 165 | 24.9 | 30.5 |  |  | 
2 | UAAUACAAGUAAGGAUUCUACAUGAGGAUCACCCAUGUGCUCGUCUUAUAAAGUACUAUCACGAAAGUGAUAGUACU [Mat - Sensor v3 - turn-off var 1 - Eli Mod - D100] (puzzle: Sensor v3, turn-off variant 1) |  |  |  | 21.8 | 199 | 22.5
3 | UAAUAUCUGUAGGAUAUCAGUGGAGAACACGUAUGAGAAGGGCAGACAUGAGGAUCACCCAUGUAUAGGGUCCG [BotMod 6 - Jieux - Exclusion 6] (Eterna round: R97, puzzle: Exclusion 6) | 59.1 |  | 20.2 |  |  | 
4 | UAAUGCAAGCAAAGAUCUUACAUGAGGAUCACCCAUGUGCUCGUCUUAUAAAGUACUAUCACGAAAGUGAUAGUACA [Mat - Sensor v3 - turn-off var 1 - Eli Mod - D91] (puzzle: Sensor v3, turn-off variant 1) |  |  |  | 27.6 | 109 | 26.3
5 | UAAUGCAAGCAAAGAUCUUACAUGAGGAUCACCCAUGUGCUCGUCUUAUAAAGUACUAUCACGAAAGUGAUAGUACU [Mat - Sensor v3 - turn-off var 1 - Eli Mod - D92] (puzzle: Sensor v3, turn-off variant 1) |  |  |  | 31.5 | 129 | 25.2
6 | UAAUGUGCGAGAGGAUAUCGUGUACAAAGUACACGAGAAGGCUUCACAUGAGGAUCACCCAUGUAUCGAGGUGAAACACCUUGG [Omei Exc(NG)1 Bv2] (Eterna round: R96, puzzle: Exclusion NG 1) | 703 | 285 | 318 |  |  | 
7 | UAAUUAAUAAGAUCAAUUAAUUAACAUGAGGAUCACCCAUGUGAGGAUAUCAGCUCGUGUAGAGCUGAGAAGGCACAAUAAUUA [ExNG3/17-C3] (Eterna round: R96, puzzle: Exclusion NG 3) | 203 | 38.8 | 51.9 |  |  | 
8 | UAAUUAAUUAAUAAAUAAUACAUGAGGAUCACCCAUGUAGAUCCUACAUACAAUUUAAGUAGCUCGUCUUAUUAUUA [Sensor-V1 #61] (Eterna round: R97, puzzle: Sensor, turn-off variant 1) | 200 |  | 255 |  |  | 
9 | UAAUUUUUAGUAAGGAUAUCGGUCCCAAGGGACAACGAGAAGGUACAUGAGGAUCACCCAUGUGAAAUAAGAAU [Mod of Zala 4 - Jieux - Brourd's Mod of Exclusion 4] (Eterna round: R97, puzzle: Brourd's mod of Exclusion 4) | 27.9 |  | 17.3 |  |  | 
10 | UACACUGCAUGAGGAUCAAACAUGAGGAUCACCCAUGUAUAACAAGCUUUUUGCACGUCUUAUAAUUAUGUAGUGUA [Electric Eye 14 - Jieux - Sensor, turn-off variant 1] (Eterna round: R97, puzzle: Sensor, turn-off variant 1) | 15.3 |  | 16.2 |  |  | 
11 | UACAUGAGGAUCACCCAUGUUUUGUCGUGUAUGGUAAUAAUCUAGGAUAUCAAUUUAUUUAUUUAUGAGAAGGAGAAUAAUAAA [JMF's solution 4] (Eterna round: R96, puzzle: Exclusion NG 3) | 67.1 | 55.9 | 61.7 |  |  | 
12 | UACAUGAGGAUCACCCAUGUUUUGUCGUGUAUGGUAUUUAUCUAGGAUAUCAAUUGAUUAAUUUAUGAGAAGGAGAAUAUUAAU [JMF's solution 60] (Eterna round: R96, puzzle: Exclusion NG 3) | 39.9 | 39.1 | 34.4 |  |  | 
13 | UACAUGAGGAUCACCCAUGUUUUGUCGUGUAUGGUAUUUAUCUAGGAUAUCAAUUGGUUUAUUUAUGAGAAGGAGAAUAUUAAU [JMF's solution 57] (Eterna round: R96, puzzle: Exclusion NG 3) | 36.1 | 31.6 | 33.3 |  |  | 
14 | UACAUGAGGAUCACCCAUGUUUUGUCGUGUAUGGUAUUUAUCUAGGAUAUCAAUUUAGUUAUUUAUGAGAAGGAGAAUAUUAAU [JMF's solution 18] (Eterna round: R96, puzzle: Exclusion NG 3) | 33.6 | 32.8 | 43.1 |  |  | 
15 | UACCUGAGGCUUUGCUUUAGGCUUACAUGAGGAUCACCCAUGUAGGAUAUGGUAGGCUUUGCUUACCAGAAGGACAUGGAAAUU [Mat - Exclusion NG 3 - Mod of JL - D20] (Eterna round: R96, puzzle: Exclusion NG 3) | 349 | 63 | 70.7 |  |  | 
16 | UACCUGUAGGUAGGAUAUCAUUGCGAUUAGCUAUGAGAAGGACCACAUGAGGAUCACCCAUGUCUACUCAGGAACCGAAAGGUC [Fiskers ExNg1 - 1] (Eterna round: R96, puzzle: Exclusion NG 1) | 13 | 10.4 | 17.3 |  |  | 
17 | UACUUGUUAGGAUAUCUUACAUUUGCAUCAUAGUAACCAUUGGAGAAGGGACAUGAGGAUCACCCAUGUUUGGA [tap-tap-tappy2] (Eterna round: R97, puzzle: Exclusion 4) | 32.2 |  | 31.5 |  |  | 
18 | UAGAAACAUGAGGAUCACCCAUGUGAGGAUAUGAAAAAGAAAAGAAAAGAAAGAAGAAUCAGAAGGCACAAAGG [salish99-ex1_r3_082] (puzzle: Exclusion 1) |  |  |  | 38.1 | 35.8 | 28.7
19 | UAGAAAGAAGUCAGGAUAUCAUGAGUUGCAGCUCAUGAGAAGGGACAUGAGGAUCACCCAUGUAACACGCCUCU [Eternabot (L2) Solution 62] (Eterna round: R97, puzzle: Brourd's mod of Exclusion 4) | 28.9 |  | 24.8 |  |  | 
20 | UAGAAUCGAGGAUAUACAUGAGGAUCACCCAUGUGUUGCCGCAUGAUGUGAUCGUCAGGUAGAAGGCGAUUAUA [Exclusion 3 - Mod of Jieux's Gilly Gone Silly 23 v.7] (puzzle: Exclusion 3) |  |  |  |  | 35.4 | 
21 | UAGCAUUGCCAAAGGUAGUGCAAAACAUGAGGAUCACCCAUGUAGGAUAUGGUAGGCAAAGCUUACCAGAAGGACAUGAUAAUU [Mat - Exclusion NG 3 - Mod of JL - D17] (Eterna round: R96, puzzle: Exclusion NG 3) | 204 | 46.3 | 51.5 |  |  | 
22 | UAGGAGUCAGGAUAUGCGAGAGAUUGAAGUAUGGGAUGUGAGCAGAAGGGACAUGAGGAUCACCCAUGUAUGGA [JR_Exclu4_Sub093] (puzzle: Exclusion 4) |  |  |  |  | 146 | 
23 | UAGGUGCAAGGAUAUCGCCCGGAAGACAUGAGGAUCACCCAUGUACCGGGUGAGUAUGGGCGAGAAGGUGCAUAUU [Usergete] (puzzle: Exclusion 5) |  |  |  | 298 | 75.9 | 92
24 | UAGUAAAAGGUGAGGAUAUCCGCAAUAAAACGUGAGGAGAAGGCACAUGAGGAUCACCCAUGUAGGGUAUCAAA [BmEX4 A.17] (Eterna round: R97, puzzle: Brourd's mod of Exclusion 4) | 421 |  | 450 |  |  | 
25 | UAGUACAGAGGAUAUACAUGAGGAUCACCCAUGUGUUUCAGCUAGGAGACUAGCGAAAGUAGAAGGCUGUACUU [salish99_ex3_r4_009] (Eterna round: R97, puzzle: Exclusion 3) | 22.4 |  | 8.4 |  |  | 
26 | UAGUGGCAAGGAUAUACAGAGGAGAGGAUUGCAAGAGGUGGACAUGAGGAUCACCCAUGUAGAAGGUGCAGAGA [JR_Exclu2_Sub022] (puzzle: Exclusion 2) |  |  |  |  | 252 | 
27 | UAGUUAAACACAGGAUAUCGCCUCUUAUUACAUGAGGAUCACCCAUGUUUAGUUAGUUACAUGUUCGAGAAGGGUGAAGUAGUU [JR_ExcNG2_Sub041] (Eterna round: R96, puzzle: Exclusion NG 2) | 793 | 1300 | 555 |  |  | 
28 | UAUAAAACAUAGGAUAUCGAAAUUAUCAUUUAACGAGAAGGAUGAACAUGAGGAUCACCCAUGUGGUAUCAUGG [Mat - Exclusion 6 - JL Mod - D10] (Eterna round: R96, puzzle: Exclusion 6) |  | 328 |  |  |  | 
